{
  "source": "the RNAGym collection of RNA variant scans (doi:10.1073/pnas.2313332121)",
  "parents": {"B1": {"name": "TPR 5TU (parent)", "chain": "GGAUCUUCUCGAUCUAACAAAAAAGACAAAUCUGCCACAAAGCUUGAGAGCAUCUUCGGAUGCAGAGGCGGCAGCCUUCGGUGGCGCGAUAGCGCCAACGUUCUCAACUAUGACACGCAAAACGCGUGCUCCGUUGAAUGGAGUUUAUCAUG"}},
  "note": "This sample holds only a part of the variants without activity.",
  "data": [
    {"variants_of": "B1", "experiment": "polymerase ribozyme fitness, log enrichment relative to wild type (log ratio); higher = more active; in vitro selection for triplet polymerase activity", "method_in_brief": "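Genotype fitness is the logarithm of its enrichment divided by wild-type enrichment, using inverse-variance-weighted averages of replicates. That logarithm is base 2. Enrichment was measured by Illumina sequencing of input and output libraries from one triplicate in vitro selection round, with frozen incubation at −7 °C, on PCR-built, transcribed mutant libraries of each subunit of a heterodimeric triplet polymerase ribozyme, retaining genotypes with ≥10 input reads and ≥1 read per output.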", "values": [
      {"variant": "GGAUCUUCUCGAUCUAACAAAAAAGACAAAUCUGCCACAAAGCUUGAGAGCAUCUUUGGAUGCAGAGGCGGCAGCCUUCGGUGGCGCGAUAACGCCAACGUUCCCAACUAUGACACGCAAAACGCGUGCUCCGUCGAAUGGAGUUUAUCAUG", "polymerase ribozyme fitness (log ratio)": "≤ -4.2"},
      {"variant": "GGAUCUUCUCGAUCUAACAAAAAAGACAAAUCUGCCACAAAGCUUGAGAGCAUCUUCAGAUGCAGAGGCGGCAGCCUUCGGUGGGGCGAUAGCGCCAACGUUCUCAACUAUGACGCGCAAAACGCGUGCUCCGUUGAAUGGAGUUUAUCAUG", "polymerase ribozyme fitness (log ratio)": -2.89},
      {"variant": "GGAUCUUCUCGAUCUAACAAAAAAGACAAAUCUGCCACAAAGCUUGAGAGCAUCUUCAGAUGCAGAGGCGGCAGCCUUCGGUGGCGAGAUAGCGCCAACGUUCUCAACUAUGACACGCAAAACGCGUGCUCCGUUGAAUGGAGUUUAUCAUG", "polymerase ribozyme fitness (log ratio)": "≤ -4.2"},
      {"variant": "GGAUCUUCUCGAUCUAACAAAAAAGACAAAUCUGCCACAAAGCUUGAGAGCAUCUUCAGAUGCAGAGGCGGCAGCCUUCGGUGGCGAGAUCGCGCCAAUGUUCUCAACUAUGACACGCAAAACGCGUGCUCCGUUGAAUGGAGUUUAUCAUG", "polymerase ribozyme fitness (log ratio)": "≤ -4.2"},
      {"variant": "GGAUCUUCUCGAUCUAACAAAAAAGACAAAUCUGCCACAAAGCUUGAGAGCAUCUUCAGAUGCAGAGGCGGCAGCCUUCGGUGGCGCGAUAGCGCCAAUGUUCUCAACUAUGACACGCAAAACGCGUGCUCCGUUGAAUGGAGUUUAUCAUG", "polymerase ribozyme fitness (log ratio)": -0.207},
      {"variant": "GGAUCUUCUCGAUCUAACAAAAAAGACAAAUCUGCCACAAAGCUUGAGAGCAUCUUCAGAUGCAGAGGCGGCAGCCUUCGGUGGCGCGAUAGCGCCAACGUUCUCAACUAUGACACGCAAAACGCGUGCUCCGUUGAAUGGAGUUUAUAAUG", "polymerase ribozyme fitness (log ratio)": -3.67},
      {"variant": "GGAUCUUCUCGAUCUAACAAAAAAGACAAAUCUGCCACAAAGCUUGAGAGCAUCUUCAGAUGCAGAGGCGGCAGCCUUCGGUGGCGCGAUAGAGCCAACGUUCUCAACUAUCACACGCAAAACGCGUGCUCCGUUGAAUGGAGUUUAUCAUG", "polymerase ribozyme fitness (log ratio)": -4.12},
      {"variant": "GGAUCUUCUCGAUCUAACAAAAAAGACAAAUCUGCCACAAAGCUUGAGAGCAUCUUCAGAUGCAGAGGCGGCAGCCUUCGGUGGGGCGAUAGCGCCAACGUUCUCAACUAUGACACGCAAAACGCGUGCUCCGUUGAAUGGAGUUUAUCAUG", "polymerase ribozyme fitness (log ratio)": -2.86},
      {"variant": "GGAUCUUCUCGAUCUAACAAAAAAGACAAAUCUGCCACAAAGCUUGAGAGCAUCUUCAAAUGCAGAGGCGGCAGCCUUCGGUGGCGCGAUAGCGCAAACGUUCUCAACUAUGACACGCAAAACGCGUGCUCCGUUGAAUGGAGUUUAUCAUG", "polymerase ribozyme fitness (log ratio)": 0.0408},
      {"variant": "GGAUCUUCUCGAUCUAACAAAAAAGACAAAUCUGCCACAAAGCUUGAGAGCAUCUUCAGAUGCAGAGGCGGCAGCCUUCGGUGGCGCGAUAGCGUGAACGUUCUCAACUAUGACACGCAAAACGCGUGCUCCGUUGAAUGGAGUUUAUCAUG", "polymerase ribozyme fitness (log ratio)": -1.01},
      {"variant": "GGAUCUUCUCGAUCUAACAAAAAAGACAAAUCUGCCACAAAGCUUGAGAGCAUCUUCAGAUGCAGAGGCGGCAGCCUUCGGUGGUGCGAUAGCGCCAACGUUCUCGACUAUGACACGCAAAACGCGUGCUCCGUUGAAUGGAGUUUAUCAUG", "polymerase ribozyme fitness (log ratio)": -0.0661},
      {"variant": "GGAUCUUCUCGAUCUAACAAAAAAGACAAAUCUGCCACAAAGCUUGAGAGCAUCUUUGGAUGCAGAGGCGGCAGCCUUCGGUGGCACGAUAGCGCCAAGGUUCUCAACUAUGACACGCAAAACGCGUGCUCCGUUGAAUGGAGUUUAUCAUG", "polymerase ribozyme fitness (log ratio)": -3.33},
      {"variant": "GGAUCUUCUCGAUCUAACAAAAAAGACAAAUCUGCCACAAAGCUUGAGAGCAUCUUCAGAUGCAGAGGCGGCGGCCUUCGGUGGCGCCAUAGCGCCAACGUUCUCAACUAUGACACGCAAAACGCGUGCUCCGUUGAAUGGAGUUUAUCUUG", "polymerase ribozyme fitness (log ratio)": "≤ -4.2"},
      {"variant": "GGAUCUUCUCGAUCUAACAAAAAAGACAAAUCUGCCACAAAGCUUGAGAGCAUCUUUGGAUGCAGAGGCGGCAGCCUUCGGUUGCGCGAUAGCGCCAACGUUCUCAACUAUGACACGCAAAACGCGUGCUCCGUUGAAUGGAGUUUAUCAUG", "polymerase ribozyme fitness (log ratio)": -1.72},
      {"variant": "GGAUCUUCUCGAUCUAACAAAAAAGACAAAUCUGCCACAAAGCUUGAGAGCAUCUUCAGAUGCAGAGGCGGCUGCCUUCGGUGGCGCGAUAGCGCUAACGUUCUCAACUAUGACACGCAAAACGCGUGCUCCGUUGAAUGGAGUUUAUCAUG", "polymerase ribozyme fitness (log ratio)": -0.178},
      {"variant": "GGAUCUUCUCGAUCUAACAAAAAAGACAAAUCUGCCACAAAGCUUGAGAGCAUCUUUGGAUGCAGAGGCGGCAGCCUUCGGUGGCGCGAUAGCGCCAACGGUCUCAACUAUGACACGCAAAACGCGUGCUCCGUUGAAUGGAGUUUAUCAUG", "polymerase ribozyme fitness (log ratio)": -0.262},
      {"variant": "GGAUCUUCUCGAUCUAACAAAAAAGACAAAUCUGCCACAAAGCUUGAGAGCAUCUUUGGAUGCAGAGGCGGCAGCCUUCGGUGGCGCGAUAGCGCCAACGAUCUCAACUAUGACACGCAAAACGCGUGCUCCGUUGAAUGGAGUUUAUCAUG", "polymerase ribozyme fitness (log ratio)": 0.41},
      {"variant": "GGAUCUUCUCGAUCUAACAAAAAAGACAAAUCUGCCACAAAGCUUGAGAGCAUCUUCAGAUGCAGAGGCGGCAGCCUUCGGUGGCGCGAUAGCGCCAACGUUCUCAACUAUGACACGCAAAACGCGUGCUCCGUUGAAUGGAGUUUUUCAUG", "polymerase ribozyme fitness (log ratio)": 0.692},
      {"variant": "GGAUCUUCUCGAUCUAACAAAAAAGACAAAUCUGCCACAAAGCUUGAGAGCAUCUUUGGAUGCAGAGGCGGCAGCCUUCGGUAGCGCGAUAGCGCCAAAGUUCUCAACUAUGACACGCAAAACGCGUGCUCCGUUGAAUGGAGUUUAUCAUG", "polymerase ribozyme fitness (log ratio)": -2.32}
    ]}
  ]
}
